Assays:
Conditions in all cases: both partners purified
[1] = molecular target: T1, cytochrome P450 3A4 (CYP3A4), human, C-terminally His-tagged, expressed from pB84 (human, UniProt P08684 1-503); experiment: absorbance spectroscopy of the co-purified nanodiscs (fit of a convolution spectrum); CPR-CYP3A4-nanodiscs of bovine liver microsomal lipid after Ni-affinity and gel filtration; spectra of singly loaded nanodiscs as basis spectra
T1 construct: human cytochrome P450 3A4 with its own N-terminal membrane anchor domain; expressed with an OmpA leader that is cleaved off during membrane targeting; source: E. coli K12 JM109, solubilised with CHAPS, purified (Ni-NTA agarose); not shown: His-tag, C-terminal, kept
T1 sequence (P08684 whole entry, the tested form may be a part): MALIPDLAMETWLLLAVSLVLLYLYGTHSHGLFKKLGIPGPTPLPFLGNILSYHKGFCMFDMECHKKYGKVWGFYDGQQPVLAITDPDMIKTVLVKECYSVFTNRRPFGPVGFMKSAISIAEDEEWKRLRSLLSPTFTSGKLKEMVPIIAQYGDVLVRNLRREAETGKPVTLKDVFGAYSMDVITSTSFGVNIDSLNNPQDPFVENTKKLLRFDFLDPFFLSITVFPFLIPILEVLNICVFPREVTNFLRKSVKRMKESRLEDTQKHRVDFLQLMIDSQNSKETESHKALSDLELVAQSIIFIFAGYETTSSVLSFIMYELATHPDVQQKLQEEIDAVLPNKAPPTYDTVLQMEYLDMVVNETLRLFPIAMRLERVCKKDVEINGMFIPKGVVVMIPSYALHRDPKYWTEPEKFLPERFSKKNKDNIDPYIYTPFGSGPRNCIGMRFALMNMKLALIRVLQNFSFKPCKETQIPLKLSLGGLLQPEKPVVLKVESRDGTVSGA

[2] = molecular target: T1, cytochrome P450 3A4 (CYP3A4), human, …; experiment: absorbance spectroscopy of the co-purified nanodiscs (fit of a convolution spectrum); CPR-CYP3A4-nanodiscs of POPC after Ni-affinity and gel filtration; spectra of singly loaded nanodiscs as basis spectra
[3] = molecular target: T1, cytochrome P450 3A4 (CYP3A4), human, …; experiment: absorbance spectroscopy of the co-purified nanodiscs (fit of a convolution spectrum); CPR-CYP3A4-nanodiscs of mixed lipid (ER mimic) after Ni-affinity and gel filtration; spectra of singly loaded nanodiscs as basis spectra

- stoichiometry N [1]: 1 CPR : CYP (molar ratio)
- stoichiometry N [2]: 0.8 CPR : CYP (molar ratio)
- stoichiometry N [3]: 1.1 CPR : CYP (molar ratio)
B1: NADPH-dependent cytochrome P450 oxidoreductase (CPR), full-length human, expressed from pPORh1 (enzyme)
chain: GIPGSMGDSHVDTSSTVSEAVAEEVSLFSMTDMILFSLIVGLLTYWFLFRKKKEEVPEFTKIQTLTSSVRESSFVEKMKKTGRNIIVFYGSQTGTAEEFANRLSKDAHRYGMRGMSADPEEYDLADLSSLPEIDNALVVFCMATYGEGDPTDNAQDFYDWLQETDVDLSGVKFAVFGLGNKTYEHFNAMGKYVDKRLEQLGAQRIFELGLGDDDGNLEEDFITWREQFWPAVCEHFGVEATGEESSIRQYELVVHTDIDAAKVYMGEMGRLKSYENQKPPFDAKNPFLAAVTTNRKLNQGTERHLMHLELDISDSKIRYESGDHVAVYPANDSALVNQLGKILGADLDVVMSLNNLDEESNKKHPFPCPTSYRTALTYYLDITNPPRTNVLYELAQYASEPSEQELLRKMASSSGEGKELYLSWVVEARRHILAILQDCPSLRPPIDHLCELLPRLQARYYSIASSSKVHPNSVHICAVVVEYETKAGRINKGVATNWLRAKEPAGENGGRALVPMFVRKSQFRLPFKATTPVIMVGPGTGVAPFIGFIQERAWLRQQGKEVGETLLYYGCRRSDEDYLYREELAQFHRDGALTQLNVAFSREQSHKVYVQHLLKQDREHLWKLIEGGAHIYVCGDARNMARDVQNTFYDIVAELGAMEHAQAVDYIKKLMTKGRYSLDVWS
notes: printed in three-letter code as Gly-Iso-Pro-Gly-Ser; human NADPH-dependent cytochrome P450 reductase (CPR), full length with its N-terminal membrane anchor domain; Expressed with an N-terminal OmpA leader for periplasmic membrane targeting; also called cytochrome P450 reductase; full-length CPR; source: E. coli C41(DE3), solubilised from membranes with Triton X-100, purified (2',5'-ADP Sepharose …)
